In patent US20260274948A1 (AUTOLUS, published 2026):
Residue numbers refer to the chain shown, from its start.

B1: Jovi Hum 8 (antibody, V domains shown)
VH: QVQLVQSGAEVKKPGASVKVSCKASGYTFTGYVMHWVRQAPGQGLEWMGFINPYNDDIQSNERFRGRVTMTRDTSISTAYMELSRLRSDDTAVYYCARGAGYNFDGAYRFFDFWGQGTMVTVSS
VL: DIVMTQSPLSLPVTPGEPASISCRSSQRLVHSNGNTYLHWYLQKPGQSPRLLIYRVSNRFPGVPDRFSGSGSGTDFTLKISRVEAEDVGVYYCSQSTHVPYTFGQGTKLEIK
notes: H-AF 1 carries no back-mutation (Q3, V20, M48, R71, T73), i.e. the plain H-AF062256 graft; also called H-AF 1; H-AF1, 3aaz
B2: Jovi Hum 17 (antibody, V domains shown)
VH: B1 VH with R72S
VL: B1 VL
notes: also called H-AF 3
B3: Jovi Hum 27 (antibody, V domains shown)
VH: B1 VH with V20M, M48I
VL: B1 VL
notes: also called H-AF 13
B4: Jovi Hum 26 (antibody, V domains shown)
VH: B1 VH with V20M, R72S, T74K
VL: B1 VL
notes: also called H-AF 12
B5: Jovi Hum 18 (antibody, V domains shown)
VH: B1 VH with R72S, T74K
VL: B1 VL
notes: also called H-AF 4
B6: Jovi Hum 20 (antibody, V domains shown)
VH: B1 VH with M48I, T74K
VL: B1 VL
notes: also called H-AF 6
B7: Jovi Hum 19 (antibody, V domains shown)
VH: B1 VH with M48I
VL: B1 VL
notes: also called H-AF 5
B8: Jovi Hum 16 (antibody, V domains shown)
VH: B1 VH with T74K
VL: B1 VL
notes: also called H-AF 2

Biological target: T1, TRBC2 (T-cell receptor beta constant region 2) (human, UniProt A0A5B9 1-129, limits assumed)
T1 construct: also called TCR beta-constant region 2
T1 sequence (A0A5B9 1-129 limits assumed): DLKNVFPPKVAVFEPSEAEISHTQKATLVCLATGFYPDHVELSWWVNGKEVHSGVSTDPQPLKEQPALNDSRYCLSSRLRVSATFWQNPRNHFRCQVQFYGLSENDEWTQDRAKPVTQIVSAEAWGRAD
Assay: ELISA

Binding result, no binding:
B1
B2
B3
B4
B5
B6
B7
B8
